Measured values from patent US20220064274A1 (SHANGHAI YILE BIOTECHNOLOGY, published 2022).
No end group written: not given here.

Key:
[1] = target: T1, LL peptide (human, also: biotinylated, position not given here); assay: ELISA, biotinylated peptide
T1 construct: Synthetic; also called Biotinylated LL peptide
T1 peptide: LLFLLEEYKNYL
Source text: (§1) The E5 peptide was further divided into three equal peptide segments, each comprising 12 amino acids, namely VP peptide ([…], SEQ ID NO: 33), LL peptide ([…], SEQ ID NO: 34), DH Peptide ([…], SEQ ID NO: 35). Biotinylated VP peptide, LL peptide and DH peptide were synthesized in vitro by GL Biochemical (Shanghai) Ltd. and the binding of antibodies was detected by ELISA.

[2] = target: T2, VP peptide (human, also: biotinylated, position not given here); assay: ELISA, biotinylated peptide
T2 construct: Synthetic; also called Biotinylated VP peptide
T2 peptide: VMLSSQVPLEPP
Source text: as §1

[3] = target: T3, DH Peptide (human, also: biotinylated, position not given here); assay: ELISA, biotinylated peptide
T3 construct: Synthetic; also called polypeptide DH; Biotinylated DH peptide
T3 peptide: DAANMSMRVRRH
Source text: as §1

[4] = target: T4, GST-human proBDNF-E5 peptide (human); assay: ELISA on GST fusion proteins
T4 construct: not shown: GST (glutathione S-transferase) fusion partner
T4 chain: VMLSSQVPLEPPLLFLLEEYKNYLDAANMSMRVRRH
Source text: (§2) The five peptides were fused with GST and expressed, and then purified. The binding of antibodies 1D3 and 2H8 was detected by ELISA.

[5] = target: T5, human proBDNF precursor protein (human, UniProt P23560 19-247); assay: SPR, Biacore T200, capture method, human proBDNF precursor protein at 0.25-8 nM
T5 construct: also called human proBDNF precursor recombinant protein
T5 sequence (looked up): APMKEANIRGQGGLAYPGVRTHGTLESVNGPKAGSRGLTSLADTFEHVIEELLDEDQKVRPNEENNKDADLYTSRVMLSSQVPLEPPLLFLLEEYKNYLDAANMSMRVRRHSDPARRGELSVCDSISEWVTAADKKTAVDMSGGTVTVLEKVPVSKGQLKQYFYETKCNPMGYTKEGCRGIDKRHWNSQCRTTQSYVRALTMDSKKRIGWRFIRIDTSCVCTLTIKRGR
Experimental: The affinity and kinetic parameters of the 1D3 and 2H8 monoclonal antibodies were measured by the capture method using the Biacore T200 system (purchased from GE). The operation is referred to the instruction. The adopted concentrations of human proBDNF precursor protein were 0.25nM, 0.5nM, 1nM, 2nM, 4nM and 8nM, respectively. The Biacore T200 evaluation software was used to evaluate the obtained action curve and to calculate the KD value of affinity . FIG. 1A and FIG. 1B respectively show the kinetic curves of monoclonal antibodies 1D3 and 2H8 in the Biacore affinity determination experiment.

[6] = target: T6, GST-huBDNFpro4; assay: ELISA, GST fusion protein coated, absorbance at 450 nm
T6 construct: Printed on the sheet without the E ('GST-huBDNFpro4'); also called E4; GST-human proBDNF-E4 peptide
T6 peptide: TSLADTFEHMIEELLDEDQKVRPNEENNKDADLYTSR
Source text: as §2

[7] = target: T7, GST-human proBDNF-E2 peptide (human, UniProt P23560 76-129); assay: ELISA on GST fusion proteins
T7 construct: not shown: GST (glutathione S-transferase) fusion partner
T7 sequence: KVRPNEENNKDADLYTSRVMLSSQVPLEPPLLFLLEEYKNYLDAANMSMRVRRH
Source text: as §2

B1: 2H8 Monoclonal antibody (antibody, V domains shown)
VH: EVQLVETGGGLVQPGGSLRLSCAASGFTFSSYGMHWVRQAPGKGLEWVSVISGSGDSTYYAESVKGRFTISRDNARNTVYLQMNSLRAEDTAVYYCASGILTGYVFDYWGKGTMVTVSS
VL: DVVMTQSPLSLPVTLGQPASISCRSSQSLVSNDGNTYLNWFQQRPGQPPRRLIYMVSKWDSGVPDRFSGSGSGTDFTLRISRVEAEDVGVYYCMQSTHWPPTFGGGTKLEIKR
notes: also called recombinant monoclonal antibody 2H8
B1: no binding [1]; no binding [2]; binds [3]. The binding result [4] was “binds”, the Kd [5] was 1.91 nM and the koff [5] was 0.00594 s⁻¹. For the same binder, the kon [5] was 3.1e+06 M⁻¹ s⁻¹ and the binding result [6] was “no binding”.

B2: 1D3 Monoclonal antibody (antibody, V domains shown)
VH: QVQLVESGGGLIQPGGSMRLSCAASGFSLSGYDMHWVRQIAGKGLEWVAGLGMEGDSYYSASVKGRFTISRQDAKNSLYLEMKDLGGGDTAVYYCLRDVHGFDVWGQGTTVTVSS
VL: DVVMTQSPLSLPVTPGEPASISCRSSQSLLYSNGYTYLDWYLQRPGQSPQLLIYMGSNRASGVPDRFSGSGSGTDFTLKISRVEAEDVGVYYCMQALQTPLTFGGGTKLEIKR
notes: also called recombinant monoclonal antibody 1D3; fully human monoclonal antibody 1D3
B2: no binding [1]; no binding [2]; binds [3]. B2: binds [4]; binds [7]; no binding [6].
